The RNAGym collection of RNA variant scans (doi:10.1021/acssynbio.7b00057)

B1: Pistol ribozyme (parent)
chain: GGGUCGUUGUUCCAUAAUCGCGUGGAUAUGGCACGCAAGUUUCUACCGGGCACCGUAAAUGUCCGACUGGAGCCGUUCGGGCGGCUAUAAACAGACCUCAGGCCCGAAGCGUGGCGGCACCUGCCGCCGGUGGUAAAAAAGAUCGGAAGAGCACACGUCU

Variants of: B1
Experiment: aptazyme ON/OFF ratio, guanine; higher = stronger switching; co-transcriptional cleavage with and without guanine

Variant	aptazyme ON/OFF ratio
GGGUCGGUCGAGUAUAAUCGCGUGGAUAUGGCACGCAAGUUUCUACCGGGCACCGUAAAUGUCCGACUGGAGCCGUUCGGGCGGCUAUAAACAGACCUCAGGCCCGAAGCGUGGCGGCACCUGCCGCCGGUGGUAAAAAAGAUCGGAAGAGCACACGUCU [U7G G9C U10G U11A C12G C13U]	1.28
GGGUCGGUCGCACAUAAUCGCGUGGAUAUGGCACGCAAGUUUCUACCGGGCACCGUAAAUGUCCGACUGGAGCCGUUCGGGCGGCUAUAAACAGACCUCAGGCCCGAAGCGUGGCGGCACCUGCCGCCGGUGGUAAAAAAGAUCGGAAGAGCACACGUCU [U7G G9C U10G U11C C12A]	1.69
GGGUCGGUCGCUCAUAAUCGCGUGGAUAUGGCACGCAAGUUUCUACCGGGCACCGUAAAUGUCCGACUGGAGCCGUUCGGGCGGCUAUAAACAGACCUCAGGCCCGAAGCGUGGCGGCACCUGCCGCCGGUGGUAAAAAAGAUCGGAAGAGCACACGUCU [U7G G9C U10G U11C C12U]	1.28
GGGUCGGUCGCGCAUAAUCGCGUGGAUAUGGCACGCAAGUUUCUACCGGGCACCGUAAAUGUCCGACUGGAGCCGUUCGGGCGGCUAUAAACAGACCUCAGGCCCGAAGCGUGGCGGCACCUGCCGCCGGUGGUAAAAAAGAUCGGAAGAGCACACGUCU [U7G G9C U10G U11C C12G]	1.32
GGGUCGGUCGCCUAUAAUCGCGUGGAUAUGGCACGCAAGUUUCUACCGGGCACCGUAAAUGUCCGACUGGAGCCGUUCGGGCGGCUAUAAACAGACCUCAGGCCCGAAGCGUGGCGGCACCUGCCGCCGGUGGUAAAAAAGAUCGGAAGAGCACACGUCU [U7G G9C U10G U11C C13U]	1.15
GGGUCGGUCGCCGAUAAUCGCGUGGAUAUGGCACGCAAGUUUCUACCGGGCACCGUAAAUGUCCGACUGGAGCCGUUCGGGCGGCUAUAAACAGACCUCAGGCCCGAAGCGUGGCGGCACCUGCCGCCGGUGGUAAAAAAGAUCGGAAGAGCACACGUCU [U7G G9C U10G U11C C13G]	1.16
GGGUCGGUCGCCAAUAAUCGCGUGGAUAUGGCACGCAAGUUUCUACCGGGCACCGUAAAUGUCCGACUGGAGCCGUUCGGGCGGCUAUAAACAGACCUCAGGCCCGAAGCGUGGCGGCACCUGCCGCCGGUGGUAAAAAAGAUCGGAAGAGCACACGUCU [U7G G9C U10G U11C C13A]	1.24
GGGUCGGUCGAUCAUAAUCGCGUGGAUAUGGCACGCAAGUUUCUACCGGGCACCGUAAAUGUCCGACUGGAGCCGUUCGGGCGGCUAUAAACAGACCUCAGGCCCGAAGCGUGGCGGCACCUGCCGCCGGUGGUAAAAAAGAUCGGAAGAGCACACGUCU [U7G G9C U10G U11A C12U]	1.19
GGGUCGGUCGGAAAUAAUCGCGUGGAUAUGGCACGCAAGUUUCUACCGGGCACCGUAAAUGUCCGACUGGAGCCGUUCGGGCGGCUAUAAACAGACCUCAGGCCCGAAGCGUGGCGGCACCUGCCGCCGGUGGUAAAAAAGAUCGGAAGAGCACACGUCU [U7G G9C U10G U11G C12A C13A]	1.1
GGGUCGGUCGGAGAUAAUCGCGUGGAUAUGGCACGCAAGUUUCUACCGGGCACCGUAAAUGUCCGACUGGAGCCGUUCGGGCGGCUAUAAACAGACCUCAGGCCCGAAGCGUGGCGGCACCUGCCGCCGGUGGUAAAAAAGAUCGGAAGAGCACACGUCU [U7G G9C U10G U11G C12A C13G]	1.13
GGGUCGGUCGGAUAUAAUCGCGUGGAUAUGGCACGCAAGUUUCUACCGGGCACCGUAAAUGUCCGACUGGAGCCGUUCGGGCGGCUAUAAACAGACCUCAGGCCCGAAGCGUGGCGGCACCUGCCGCCGGUGGUAAAAAAGAUCGGAAGAGCACACGUCU [U7G G9C U10G U11G C12A C13U]	1.12
GGGUCGGUCGGGGAUAAUCGCGUGGAUAUGGCACGCAAGUUUCUACCGGGCACCGUAAAUGUCCGACUGGAGCCGUUCGGGCGGCUAUAAACAGACCUCAGGCCCGAAGCGUGGCGGCACCUGCCGCCGGUGGUAAAAAAGAUCGGAAGAGCACACGUCU [U7G G9C U10G U11G C12G C13G]	1.06
GGGUCGGUCGGGUAUAAUCGCGUGGAUAUGGCACGCAAGUUUCUACCGGGCACCGUAAAUGUCCGACUGGAGCCGUUCGGGCGGCUAUAAACAGACCUCAGGCCCGAAGCGUGGCGGCACCUGCCGCCGGUGGUAAAAAAGAUCGGAAGAGCACACGUCU [U7G G9C U10G U11G C12G C13U]	1.12
GGGUCGGUCGGGAAUAAUCGCGUGGAUAUGGCACGCAAGUUUCUACCGGGCACCGUAAAUGUCCGACUGGAGCCGUUCGGGCGGCUAUAAACAGACCUCAGGCCCGAAGCGUGGCGGCACCUGCCGCCGGUGGUAAAAAAGAUCGGAAGAGCACACGUCU [U7G G9C U10G U11G C12G C13A]	1.11
GGGUCGGUCGAUAAUAAUCGCGUGGAUAUGGCACGCAAGUUUCUACCGGGCACCGUAAAUGUCCGACUGGAGCCGUUCGGGCGGCUAUAAACAGACCUCAGGCCCGAAGCGUGGCGGCACCUGCCGCCGGUGGUAAAAAAGAUCGGAAGAGCACACGUCU [U7G G9C U10G U11A C12U C13A]	1.17
GGGUCGGUCGAUGAUAAUCGCGUGGAUAUGGCACGCAAGUUUCUACCGGGCACCGUAAAUGUCCGACUGGAGCCGUUCGGGCGGCUAUAAACAGACCUCAGGCCCGAAGCGUGGCGGCACCUGCCGCCGGUGGUAAAAAAGAUCGGAAGAGCACACGUCU [U7G G9C U10G U11A C12U C13G]	1.28
GGGUCGGUCGAUUAUAAUCGCGUGGAUAUGGCACGCAAGUUUCUACCGGGCACCGUAAAUGUCCGACUGGAGCCGUUCGGGCGGCUAUAAACAGACCUCAGGCCCGAAGCGUGGCGGCACCUGCCGCCGGUGGUAAAAAAGAUCGGAAGAGCACACGUCU [U7G G9C U10G U11A C12U C13U]	1.23
GGGUCGGUCGGUAAUAAUCGCGUGGAUAUGGCACGCAAGUUUCUACCGGGCACCGUAAAUGUCCGACUGGAGCCGUUCGGGCGGCUAUAAACAGACCUCAGGCCCGAAGCGUGGCGGCACCUGCCGCCGGUGGUAAAAAAGAUCGGAAGAGCACACGUCU [U7G G9C U10G U11G C12U C13A]	1.15
